# Reference: publication PMC9213775 (iScience, 2022)
# Target: the molecule itself
# Assay: AUC
protein,measurement,value
"UDS1-His6 (natural protein, Aspergillus nidulans, UniProt Q5B1I5 1-941, looked up) MNGFDFRSSQSSYGDPRHFSDASYGVPQPPPTKVLLDGYRDALGPANAEKSLYNSANPTSHPRRSIPPSANDPVAMYLLTETAMGDSVNYEILSVEEVEGLKKELRVLSNRMNAAKRKLALELKLRDAAMSLSRLHHKEEHDVDGSGRNEPNTDKTNEELVHINRKCEELSMDIWYSERKVQEIQKRLLEHTAGVLQLTHKGLKKNSKNGMPHTPESLSSSNTVDDFDDRSLYKASDPLDGPETYETRAPPPDNLAHDNSMQETERKLESMSSRLRDMLLQLDPDSEFSQIPQPSTSGDSFEPSAMIDAHLRYIENGISALGSLPKADMASQSLDPVSEQQLVEMRTQLLSIMENPGLPRAQTLPTAPDPTDSDLAKHLTFLSVGINGLESRVEKLLEQKSILTTQIQQQRELNSKSDAERDAKIADLIEQLAHLRKELELAEREGQQSKEDHDLTLKELEDVRRELLESRETHSSRDLGNSKNEAQQHAEAEIARLQSVIQEIQQEKDEHCEAHRRAEAEIDRLQAVIHQIQQEKDEHREAHERAEAETTRLQTIVEEVQQEKDEQHEAHGRAVAEVTRLQDIIQKIEQEKIERHEADERAEAEIVRLRDTIREIQQEKEEHHEARVRLEGEVARLQGVIGQLQESAESRESAEQQVAQLEETIHQIRHDADIRIKEATDSRAQADAKIAQLEGAMNEVRESLESQLKEATEARNNAEENSTRLQKELTELERDVVRAQTELTMVKAELDGAYGTRAQRAAEAAADPALFHELDELKARNFEMAEELAALKAGKPGSGDVHNRVETLERELRETVDDYEAMTKASIEFEKERERFESMIDSLRDRCEQLETQLNEERISWMGANNSASSMGRDGPYETTSTMVLKNEFKKMMRDTRAENMKILKAEQEERRKLEAILRNLKREQANLSGKSNISRTVTAS",stoichiometry N,2
